# Experimental data: patent US20200282021A1
# Molecular target: GLP-1 receptor expressed on the transgenic cell line GLP1R_cAMP/luc
# Test: cell-based or functional assay
substance,measurement,value
Dulaglutide (TRULICITY) (Fc fusion),"EC50, cAMP-dependent luciferase reporter in GLP-1R over-expressing cells",6.66 pM
